Data published in patent US10159707B2, “Treatment of cancers with immunostimulatory HIV Tat derivative polypeptides” (PIN Pharma, Inc., priority 2013, dated 2018).
“Also recorded” adds a separate entry of the source.

Experiments:
Type in all cases: in vivo, mouse
4T1 breast tumor = experiment: 4T1 primary breast tumor growth in BALB/c mice
Procedure: BALB/c mice were injected (SC) with 1×10^4 4 T1, 1×10^5 TS/A or 2×10^5 SM1 cells, respectively, in the left mammary pad on day 0. […] The control group received PBS injection. […] Tumor burden (tumor volume) was measured and recorded three times weekly. Animals were sacrificed when tumors reached a volume of 15 mm in diameter and the tumors harvested and weighed.
The therapeutic effect of systemic administration of synthetic, Tat-derived compositions in murine models of breast cancer was investigated. […]

TS/A breast cancer cells = experiment: TS/A breast carcinoma model, primary tumor growth
Procedure: BALB/c mice were injected (SC) with 1×10^4 4 T1, 1×10^5 TS/A or 2×10^5 SM1 cells, respectively, in the left mammary pad on day 0. Immunotherapy was performed by directly injecting a Tat derivative into the right flank at 0, 7, 12, and 17 days after establishment of tumors. The control group received PBS injection. […] Tumor burden (tumor volume) was measured and recorded three times weekly. Animals were sacrificed when tumors reached a volume of 15 mm in diameter and the tumors harvested and weighed.
The 4T1 murine mammary tumor model was chosen for study because it is an aggressive and rapidly invasive tumor; it is routinely metastatic at fourteen days post-implant by which time it is difficult to treat. To learn whether the efficacy of Nani-P2 could extend to other murine breast tumor models, two additional mammary tumors, TS/A and SM1 were studied (FIG. 6). TS/A primary mammary tumors were approximately as aggressive as 4T1, reaching a tumor volume of 15 mm at 30 days (FIG. 6A). However, the TS/A tumors were considerably more responsive to Nani-P2 treatment, with an approximate 50% suppression of growth after treatment with 0.4 ng Nani-P2, and a 40% total remission rate at 30 days.

[1] = system: tumor infiltrating CD8+ CTL; experiment: IHC staining of primary 4T1 breast tumors for CD8; conditions: therapy initiated 7 days after inoculation; resected Day 29/30; listed as PIN-2
Procedure: Female BALB/c mice were inoculated in the mammary fat pad with syngeneic and highly metastatic 4T1 breast cancer cells to model Stage IV human breast cancer. Nani-P2 immunotherapy was initiated 7 days after tumor cell inoculation. Tumors were assessed by caliper measurements throughout the study and resected on Day 29/30. Immunohistochemical staining (IHC) for PD-L1 and CD8 was performed on formalin-fixed, paraffin embedded specimens of primary 4T1 tumors.

4T1 cells = experiment: Repeated dosing of Nani-P2 and cyclophosphamide in 4T1 tumor-bearing mice
Procedure: Four groups of 10 BALB/c mice were implanted with 1×10^4 4 T1 cells SC into the mammary fat pad. Treatment was initiated when tumor diameters reached 4-5 mm, on day 10. Control mice were injected IV with PBS at 3 days intervals, while alternating treatment mice received 3 doses of drug every 3 days in rotating 10 day cycles. Tumor burden (tumor size mm^3) was calculated using a standard formula. CY (cyclophosphamide alone) mice were injected IP weekly with 80 mg/kg per mouse beginning on day 10. Cy/Nani-P2 (cyclophosphamide first followed by Nani-P2) mice were first injected IP with cyclophosphamide (80 mg/kg) at 3 days intervals for three doses starting at day 10 and then injected IV with Nani-P2 (40 ng) at 3 days intervals for three doses in rotation. The cycle of 3 doses of CY followed by 3 doses of Nani-P2 was repeated until day 50. Nani-P2/CY (Nani-P2 first followed by cyclophosphamide) mice were first injected IV with Nani-P2 (40 ng) at 3 day intervals for 3 doses starting on day 10 and then injected i.p. with cyclophosphamide at 3 day intervals in rotation. The cycle of 3 doses of Nani-P2 followed by 3 doses of CY was repeated until day 50.

4T1 lung metastases = experiment: Detection of 4T1 lung metastases
Text: Lungs were examined for 4T1 metastases as previously described (Pulaski B. et al. Cancer Res. 60:2710-2715, 2000). Primary 4T1 tumors that have been established for 2-3 weeks in BALB/c mice metastasize to the lungs in a very large majority of animals. Briefly, mice were sacrificed according to IACUC guidelines established at the start of the trials, the lungs were removed, and tumor nodules on the surface of the lungs were enumerated with the naked eye by two independent investigators blinded to the treatment protocols.
To further investigate the efficacy of Nani-P2 against established and metastatic breast cancer, 4T1 cells were injected SC in the abdominal mammary gland of mice and treatment was delayed until such time that the tumors had metastasized to the lungs and averaged 3.5 mm in size (FIG. 8A, day 13), corresponding to a 2.4 cm or stage T2 human breast tumor. Mice were followed for tumor growth (FIG. 8A) and lung metastases (FIG. 8B). […] This corresponded to a less aggressive appearance of primary tumor, as well as lung metastases that were on average much smaller in size (FIG. 8B).

[2] = Toxicity observed in treated mice; conditions: SC or IV 40 ng, multiple trials, multiple dosing schedules
4T1 breast tumors = experiment: Kaplan-Meier survival of mice bearing 4T1 breast tumors
Procedure: To determine whether Nani-P2 treatment could extend survival in addition to shrinking primary tumors in mice, treatment protocols using various dosing schedules and routes (SC, IV or IT) of administration of 40 ng Nani-P2 were performed. Cohorts of ten mice per group were followed for length of survival, as assessed by use of the Kaplan-Meier product limit method. As per Columbia University Medical Center Animal Facility regulations, each mouse was euthanized at a mean tumor diameter of approximately 15 mm, or earlier if the mouse became moribund, making one of these two outcomes the defining criteria for fatality.

[3] = Nani-P2 alternating with cyclophosphamide

B1: Nani-P2: Tat derivative polypeptide SEQ ID NO:3; TF SIVagmVer, cysteine-rich HIV-1, C-terminal SIVagmVer (protein)
chain: MDPKGEEDQDVSHQDLIKQYRKPRTACNNCYCKKCCFHCYACFLRKGLGITYHAFRTRRKKIASADRIPVPQQSISIRGRDSQTTQESQKKVEEQAKANLRISRKNLGDETRGPVGAGN
modifications: Tat derivative polypeptide
notes: TF SIVagmVer, cysteine-rich HIV-1, C-terminal SIVagmVer
4T1 breast tumor; 4 ng per mouse, four times over 21 days, p<0.1 as printed
  4T1 tumor volume difference versus control, 4 ng: highly significant
4T1 breast tumor; 40 ng IV weekly over three weeks from day 14
  mice in complete remission, disease-free at 50 days: one animal underwent a complete remission; also recorded: One of 10
4T1 breast tumor; 40 ng IV, established 4T1 tumors
  mice with regression of tumor at the initial treatment on day 14: 7/10
4T1 breast tumor; 40 ng per mouse, four times over 21 days, p<0.01
  4T1 tumor volume difference versus control, 40 ng: highly significant
4T1 breast tumor; 40 ng weekly for three weeks beginning at day 14 (IV), p<0.01
  primary tumor burden of established 4T1 tumors versus PBS control: statistically significant benefit in primary tumor suppression; also recorded: highly significant
4T1 breast tumor; 400 ng SC days 0, 7, 14, 21, p<0.01
  4T1 tumor volume difference versus control starting at day 22: highly significant
4T1 breast tumor; 400 ng partially-purified, SC, days 0, 7, 14, 21 (Nani-P3 also 2 μg), from day 15, p<0.05
  4T1 tumor burden versus PBS control: significantly reduced tumor burden; also recorded: significant
4T1 breast tumor; SC therapy begun on day 13, tumors about 5 mm in diameter
  average decrease of 4T1 tumor burden at maximal effect: 52%
4T1 breast tumor; SC therapy initiated on day 0 after tumor cell injection
  average shrinkage of 4T1 tumor burden: 53%
4T1 breast tumor; SC, compared with 40 ng, data not shown
  effect of increasing the dose to 400 ng and 2 μg: no further anti-tumor efficacy
4T1 breast tumor; day 21 (final dosing), 400 ng SC, p<0.01
  difference in primary tumor burden between Nani-P2 and Nani-P1-treated tumors: 18 mm^3
4T1 breast tumor; highly-purified, SC
  dose giving significant 4T1 tumor growth inhibition: ≤ 0.4 ng
4T1 breast tumor; highly-purified, SC, 0.4 ng to 40 ng per dose
  4T1 breast tumor growth inhibitory effect, dose relation: dose-dependent
TS/A breast cancer cells; 0.4 ng SC
  suppression of TS/A tumor growth: ~50%
TS/A breast cancer cells; 0.4 ng SC, p<0.01
  TS/A primary anti-cancer difference versus control, lowest dose: highly significant
TS/A breast cancer cells; 40 ng SC, p<0.01
  TS/A primary anti-cancer difference versus control, 40 ng: highly significant
TS/A breast cancer cells; SC Nani-P2, 30 days
  TS/A total remission rate at 30 days: 40%
[1]
  tumor infiltrating CD8+ CTL versus PBS control: infiltrating CD8+ CTL advancing around tumor edge; also recorded: significant increase in the population of tumor infiltrating CD8+ CTL
4T1 cells; [3]
  mice in partial remission at day 50: 9/10
  mice in total remission at day 50: 3/10
4T1 cells; Nani-P2 bolus treatment alternating with cyclophosphamide, p=0.0001
  survival benefit versus weekly cyclophosphamide: highly statistically significant
4T1 lung metastases; 4T1 model
  lung metastases versus controls: significantly inhibited the development of spontaneous 4T1 lung metastases; also recorded: dramatic reduction in the visible number of lung metastases
4T1 lung metastases; treated IV, treatment delayed to day 13, p<0.01
  average number of grossly visible tumor nodules in the lungs: seven
[2]
  toxicity: no toxicity was observed
4T1 breast tumors; 40 ng IT, three weekly cycles, tumors established fourteen days
  survival, intratumoral administration: slightly inferior to SC administration
4T1 breast tumors; 40 ng IV, three weekly cycles, tumors established fourteen days, p<0.005
  survival at day 47: 60%
4T1 breast tumors; 40 ng SC, 4 doses over 21 days from tumor implant, p<0.001
  treated mice still alive at day 48: 35%
4T1 breast tumors; 40 ng SC, three weekly cycles, tumors established fourteen days, p<0.05
  survival at day 47: 20%
4T1 breast tumors; 4T1 model
  survival versus control mice: increased survival compared with control mice
4T1 breast tumors; established 4T1 tumors, treated intravenously
  tumor growth inhibition and survival benefits, extension past the last dosing: at least 36 days
4T1 breast tumors; four doses 40 ng SC from day 0
  survival versus controls at day 42: statistically significant better survival over controls
4T1 breast tumors; three weekly doses 40 ng IV, therapy delayed until day 13/14, day 47
  survival benefit versus control, IV: very highly statistically significant benefit to survival; also recorded: highly statistically significant
4T1 breast tumors; three weekly doses 40 ng SC into draining lymph nodes, therapy delayed until day 13, day 47
  survival benefit versus control, SC: statistically significant
